US20260274955A1 (JANUX THERAPEUTICS, published 2026)

Columns and labels:
[1] = molecular target: T1, Anti-CD28 Fab (SEQ ID NOs: 202, 203); assay: phage ELISA, Fab on plate;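 also: crude clonal phage supernatants added to wells pretreated with blocking buffer with or without CD28 antigen, then bound phage read out via HRP-linked anti-M13 antibody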
T1 construct: biotinylated and captured on neutravidin coated plates in the phage ELISA

[2] = molecular target: T1, Anti-CD28 Fab (SEQ ID NOs: 202, 203); assay: phage ELISA, Fab on plate, CD28 antigen as competitor

T1 sequence (VH, as listed by the source, chain 1 of 2): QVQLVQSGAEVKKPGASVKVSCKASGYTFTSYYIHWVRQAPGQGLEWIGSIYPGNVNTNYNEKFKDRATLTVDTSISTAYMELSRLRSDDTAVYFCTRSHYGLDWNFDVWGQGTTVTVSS
T1 sequence (VL, as listed by the source, chain 2 of 2): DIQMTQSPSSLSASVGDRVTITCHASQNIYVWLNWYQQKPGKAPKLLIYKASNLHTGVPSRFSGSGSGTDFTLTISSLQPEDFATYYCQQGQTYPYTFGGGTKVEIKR

| Binder | Anti-CD28 Fab (SEQ ID NOs: 202, 203) signal [1] | Anti-CD28 Fab signal in the presence of CD28 [2] |
| --- | --- | --- |
| YCEGHLVQYMQKCL [Phage-669] | 1.28 | 0.06 |
| YCEGHDVQYMQKCL [Phage-749] | 1.06 | 0.08 |
| YCEGHLKEYMQKCL [Phage-714] | 1.17 | 0.07 |
| YCEGHAGVYMAKCL [Phage-708] | 1.17 | 0.05 |
| YCEGHSLEYMMKCV [Phage-664] | 1.3 | 0.07 |
| YCEGHMSIYMQKCL [Phage-683] | 1.25 | 0.07 |
| YCDGHLEVYMDKCL [Phage-672] | 1.28 | 0.07 |
| YCEGHLPRYMLKCL [Phage-671] | 1.28 | 0.3 |
| YCDGHSPAYLQKCL [Phage-673] | 1.28 | 0.06 |
| YCEGHLPEYMIKCL [Phage-658] | 1.32 | 0.06 |
| YCEGHMPEYLAKCL [Phage-707] | 1.18 | 0.07 |
| YCDGHRAEYMLKCL [Phage-668] | 1.29 | 0.08 |
| YCDGHVEEYMTKCL [Phage-691] | 1.24 | 0.07 |
| YCAGHLDIYLAKCL [Phage-701] | 1.21 | 0.07 |
| YCAGHAPEYISKCL [Phage-702] | 1.21 | 0.07 |
| YCDGHIPEYMTKCL [Phage-661] | 1.31 | 0.06 |
| YCDGHSWEYLGKCL [Phage-703] | 1.2 | 0.05 |
| YCQGHSVEHMAKCL [Phage-666] | 1.3 | 0.06 |
| YCEGHAEQYMEKCL [Phage-713] | 1.17 | 0.08 |
| YCEGHSTEYIQKCL [Phage-694] | 1.23 | 0.09 |
| YCEGHIGIYMSKCL [Phage-693] | 1.23 | 0.07 |
| YCEGHLAEYMNKCL [Phage-690] | 1.24 | 0.07 |
| YCEGHRAEYMSKCL [Phage-716] | 1.16 | 0.09 |
| YCEGHSAEHMPKCL [Phage-696] | 1.23 | 0.09 |
| YCVGHYPEYMEKCL [Phage-697] | 1.22 | 0.07 |
| YCDGHAEEYRMKCL [Phage-678] | 1.27 | 0.08 |

| Binder | Anti-CD28 Fab (SEQ ID NOs: 202, 203) signal [1] | Anti-CD28 Fab signal in the presence of CD28 [2] |
| --- | --- | --- |
| YCAGHALEYMGKCL [Phage-657] | 1.32 | 0.06 |
| YCDGHAPQYMAKCI [Phage-665] | 1.3 | 0.06 |
| YCAGHMPIYMTKCL [Phage-667] | 1.3 | 0.08 |
| YCHGHLPQYMSKCM [Phage-700] | 1.21 | 0.06 |
| YCEGHTQEYMQKCL [Phage-688] | 1.24 | 0.07 |
| YCEGHSTEYMAKCL [Phage-676] | 1.27 | 0.06 |
| YCEGHSEEYMAKCL [Phage-682] | 1.26 | 0.07 |
| YCAGLFEEYMSKCL [Phage-685] | 1.25 | 0.06 |
| YCDGHRPEYMSKCL [Phage-706] | 1.18 | 0.07 |
| YCEGHLPAYMWKCL [Phage-659] | 1.31 | 0.08 |
| YCEGHHRIYMQKCL [Phage-681] | 1.26 | 0.07 |
| YCDGHSEQYMAKCL [Phage-687] | 1.24 | 0.06 |
| YCDGHLPVYMTKCL [Phage-679] | 1.27 | 0.07 |
| YCEGHSSQWMWKCL [Phage-674] | 1.27 | 0.09 |
| YCEGHAAEYLWKCL [Phage-705] | 1.18 | 0.09 |
| YCEGHFPLYMNKCL [Phage-675] | 1.27 | 0.08 |
| YCDGHLEQYMLKCL [Phage-692] | 1.24 | 0.09 |
| YCDGHSMMYMQKCL [Phage-695] | 1.23 | 0.06 |
| YCEGHQPAYMEKCL [Phage-677] | 1.27 | 0.06 |
| YCDGHSSVYMLKCL [Phage-680] | 1.26 | 0.06 |
| YCMGHLPIYMEKCL [Phage-670] | 1.28 | 0.05 |
| YCEGHLQEHMAKCL [Phage-684] | 1.25 | 0.05 |
| YCDGHEARYMQKCL [Phage-698] | 1.21 | 0.07 |
| YCDGHSQEYMSKCL [Phage-699] | 1.21 | 0.06 |
| YCEGHSAVYMSKCL [Phage-663] | 1.31 | 0.06 |
| YCAGHSSEYIGKCL [Phage-710] | 1.17 | 0.06 |
